In the supplement of paper PMC10567573:

B1: PLAGL1 (parent)
chain: LELGSTEVLLDHLKAHAEEKPPSG

Variants of: B1
Experiment: protein stability index of a GFP-peptide fusion (GPS, HEK-293T) (PSI 1-6); higher = more stable
Details: c terminus: a fixed tail appended
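Also: lentivirally expressed fusions sorted by FACS into six bins by GFP to DsRed ratio, PSI derived from sequencing read proportions per bin multiplied by bin number.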

Protein stability index: each site, then its substitutions
E7: N 4.67 | Q 4.89 | T 4.24 | R 4.81 | P 5.07 | Y 3.77
G24: I 4.07 | H 4.47 | C 3.97 | K 4.34 | Y 3.7 | A 4.66 | E 4.68 | W 3.23 | T 4.18 | P 4.9
S5: L 2.53 | D 4.84 | F 3.09 | I 4.15 | Q 2.92 | Y 3.33 | H 4.84 | R 3.5 | W 2.97 | N 5.08 | E 3.8
H16: F 3.42 | M 3.29 | L 4.08 | S 4.58 | I 3.93 | D 4.25 | Q 4.53 | A 4.24 | W 3.02 | T 4.29 | G 3.88 | N 5.11 | K 5.08 | V 4.05
S23: Q 4.71 | V 4.34 | M 4.15 | F 3.72 | P 4.5 | H 4.17 | I 4.1 | C 4.35 | G 4.43 | E 4.89 | Y 3.79 | W 3.22 | K 4.28 | A 3.76 | D 5.1
A15: W 3.54 | D 4.8 | Q 4.63 | K 3.87 | T 5.14 | H 4.37 | N 4.73 | C 4.04 | P 5.41 | L 4.83
P22: A 4.49 | M 3.85 | N 4.95 | G 4.4 | K 4.25 | Q 4.85 | Y 3.9 | S 4.79
K14: Q 4.59 | Y 4.14 | I 4.55 | H 5.15 | P 5.32 | M 3.6 | T 5.1 | V 4.63 | A 4.93 | L 4.61 | N 5.04 | F 3.5 | R 3.5 | C 4.69
E19: Y 3.32 | I 3.14 | Q 3.89 | V 3.27 | H 3.61 | G 2.45 | R 3.58 | M 3.41 | K 3.55 | S 3.65 | C 3.12
A17: H 4.13 | F 2.97 | T 4.16 | V 3.88 | N 4.7 | W 3.35 | Y 3.4 | Q 4.65 | C 3.74 | K 4.11
L10: K 5.83 | I 4.07 | R 5.62 | V 5.1 | N 5.74 | H 5.35 | T 5.87 | G 5.66
T6: Q 5.22 | R 4.57 | I 3.4 | L 2.84 | S 4.71 | Y 3.76
V8: S 4.87 | E 5.29 | D 5.01 | N 4.85 | H 4.55 | C 4.41 | P 4.84 | L 3.21 | F 3.85 | I 3.91
E18: L 2.76 | S 3.87 | F 2.08 | C 3.39 | W 2.07 | K 2.7 | P 3.28 | M 2.61 | A 3.45 | N 3.53
L1: M 4.59 | C 4.61 | I 3.55 | S 4.98 | N 5.35 | G 4.44 | E 5.02 | Q 4.99 | H 5.36 | Y 4.38 | A 5.43 | V 4.91 | D 5.24 | R 5.29
G4: N 4.54 | L 2.77 | Y 2.19 | D 5.28 | F 2.59 | C 3.54 | E 3.85 | K 4.3 | T 3.95 | M 2.25
